These results are taken from paper PMC5841360 (2018).

To fix the notation:
B1: his6-cortactin, wild type (purified) [not stated] / GST-GluA2 C-terminal tail [not stated] (parent complex)
chain 1: not shown
chain 2: EFCYKSRAEAKRMKVAKNPQNINPSSSQNSQNFATYKEGYNVYGIESVKI

In the assay the parent is B1. Put plainly: GST pulldown, Western blot quantification; Input is 0.2% of offered protein; n = 3-6; read off a plot.
Turning to chain 2 K14A, chain 2 V15A, the percent of parent was approximately 37.
With chain 2 K17A, chain 2 N18A, the percent of parent was approximately 76.
With chain 2 K11A, the percent of parent is approximately 22.
Take chain 2 P19A, chain 2 Q20A: the percent of parent was approximately 83.
As to chain 2 R12A, chain 2 M13A, the percent of parent was approximately 55.
